Molecular target: microtubules assembled from highly purified (MAP-free) porcine brain tubulin (porcine) (UniProt P02550)
Experiment: co-sedimentation; MTs assembled from 25 µM PC-purified (MAP-free) porcine brain tubulin in PEM (100 mM Pipes pH 6.8, 2 mM EGTA, 1 mM MgCl2) with 1 mM GTP, 10% glycerol, 1 mM DTT, 0.5% Triton X-100, 1 h 37°C; 2.5 µM recombinant plectin fragment added for 60 min; 45 000 g 30 min 37°C; supernatant and pellet by SDS-PAGE, Coomassie, densitometry

Substance	percent co-sedimented with MTs [%]
plectin fragment P1c(2α3α)-8 (exons 1c(2α3α)-8), untagged (domain or fragment)	52
plectin fragment P2(2α3α)-8 (exons 2(2α3α)-8), untagged (domain or fragment)	36.5
